Data as given in the supplement of paper PMC9170038.

How the values were obtained:
[1] = test system: K4 kissing-loop RNA reporter; assay: apparent KD of K4 kissing-loop reporter; higher = weaker reporter binding; conditions: Eterna round: R107;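 further: bound reporter read as fluorescence of individual clusters on recovered sequencing chips by microscopy, with normalized cluster intensities fitted with a binding model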
Experimental: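 RNA-MaP round R107: designed RNA switches with theophylline, tryptophan, arginine or FMN aptamers are transcribed on-chip within common flanks. They are titrated with a labelled K4 kissing-loop RNA reporter in RNA-MaP buffer (100 mM Tris pH 7.5, 80 mM KCl, 4 mM MgCl2), without ligand or with the indicated ligand. Median apparent KD per design.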

MS2 coat protein = assay: apparent KD of MS2 coat protein; designed switch direction (-1 OFF switch, 1 ON switch): -1; higher = weaker reporter binding
In short: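 RNA switches sharing common flanks were transcribed by stalled E. coli RNA polymerase on Illumina chips. A doubling series of SNAP-549-labelled MS2 coat protein, from 0.7 or 1.5 nM to 3 µM, was applied in Tris-HCl pH 7.5 buffer with KCl, MgCl2, BSA, DTT, tRNA and Tween-20. Each step lasted 0.8–1.5 h at the bottom of the series and 10–20 min at the top. Normalised cluster fluorescence was curve-fitted, giving apparent KD as the per-design median over clusters.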

[2] = input ligand: theophylline 20 uM
[3] = input ligand: tryptophan 2.4 mM
[4] = Eterna round: R95, input ligand: microRNA oligo, concentration not stated

Sequence	apparent KD of K4 kissing-loop reporter ([1]; input ligand: FMN 200 uM) [nM]	apparent KD of K4 kissing-loop reporter ([1]; input ligand: arginine 13.2 mM) [nM]	apparent KD of K4 kissing-loop reporter ([1]; input ligand: none) [nM]	apparent KD of K4 kissing-loop reporter [1, 2] [nM]	apparent KD of K4 kissing-loop reporter [1, 3] [nM]	apparent KD of MS2 coat protein (MS2 coat protein; Eterna round: R95, input ligand: FMN 200 uM) [nM]	apparent KD of MS2 coat protein (MS2 coat protein; [4]) [nM]	apparent KD of MS2 coat protein (MS2 coat protein; Eterna round: R95, input ligand: none) [nM]	apparent KD of MS2 coat protein (MS2 coat protein; input ligand: FMN 200 uM) [nM]	apparent KD of MS2 coat protein (MS2 coat protein; input ligand: none) [nM]	apparent KD of MS2 coat protein (MS2 coat protein; input ligand: microRNA oligo, concentration not stated) [nM]
UUGAGCCGGACGUAAGUCCGGCUCUGCGAGCGAGGACCGGUACGGCCGCCACUCGGUGCAGUGAUGUUGCAUGGCCGCAAGGCCG [#2 Exclusion - Tryptophan A Attempt #5 (HarryS)]	324	233	235	394	278						
GGUGUUGUUUGUGCCGUUUUCCUCGUUCCUCGAGGACCGGUACGGCCGCCACUCGAGUGAUGUUUGGGUAGCGAUCCCUGUUAGU [Bdazzled - #9 Exc. Tryptophan A]	868	646	871	802	766						
AACAGCAAUGCGGCCGCCACUUCGAGGUCAGUGAUGUUGACGGAAUUAAAUAAAGAUCCCAAGAGGAGGACCGGGCAGUGCUGUU [whbob_SS_Tryp_B_t25]	468	465	499	410	289						
CAGAUCACAGAGUGAUGUUCUGUGUCCGAAGGAGCGCGCUUCGGCGCAGGUAGGUCGCGGAUACAGUUGACGUACCAUCUAGACA [Arg A Ex t3c]	446	383	583	485	507						
UCGGCAGUGAACGAUACCAGCGUCACGUGGCUGGUGGUCACAUGAGUGAUGUUCAUGUAACGCCCUUGGCAGCGUGCGCGUACCG [KL-XTheo-B11]	113	98.1	107	94.7	103						
UUGGCCGGACGGGAUACCAGUCAAAUCGUGUGCUUGGGAUGUCUAAGAGCCAGUGAUGUUGGCCCUUGGCAGCCCUCCCAGCUUG [Esleaqu]	111	105	110	102	93.5						
GUGACGCGGACGGCCGCCACUCCGGUGACCGCUCCGUGCCGCCCUGCGCGAGUGAUGUUCGCCAGGAGGACCGGGUCCGACUUUA [Soesente]	107	101	106	89.4	96.3						
UCGCCAAAGUCGGCCGCCACUCCGGGCCCUAUAAAUGGGCGCAGUGAUGUUGCGGCUAGGCCUCUGAGGACCGGGACUUUGUAGA [Esenusza]	116	0.509	152	233	152						
UAGUCCUAGUGAUGGUCAUCACGUGGCGGGCGAGGACCGGUACGGCCGCCACUCGACUUUGCAGUGAUGUUGCAAACCGGACAAU [Exclusion - Tryptophan A (Freestyle 20)]	144	134	132	136	191						
AAGGUCACUACUACAGUGAUGUUGUAGGAGCAGGAUAUGCAGAAAUGCAGAAGGGCUCGCUCCAGGUGACCGAAUGAAACAUUCA [Omei KL FMN A SS A v3]	333	504	573	475	501						
AGGUCCGAGCCUGCAAAGGCUCGGACCUGUUAGGAUAUGACGUUAUUCAGAAGGGAUGGGUGGAGUGAUGUUCCACCCGCAAGGG [#2 Same State - FMN A Attempt #7 (HarryS)]	142	105	120	98.4	113						
UGUGUUUACCUGACUCAGUGAUGUUGAGAAGGAGCGUGAGAAAUCACAGGUAGGUCGCUCAACCUAAAUUCAGGUGAGCACUAAA	268	197	325	277	253						
GUGUGUGUCGGAGGAUAUGCGGUGGGUGUGGGCGGAUUAGUGAUGUUGGUUGUGGUGGUGGUGGGUGUAGAAGGUUGGUGUGUGU [RHig 3/7 C]	710	350	738	400	444						
AGUACUAUCACGAAAGUGAUAGUACAAAAAGCAAGUGAAACAUGAGGAUCACCCAUGUCCUCAUUUGCUCGUCUUAU [Identical to 94% Sensor v2, turnoff variant 2] (puzzle: Sensor v3, turn-off variant 2)						16.8	476	12.7			
UUCACAUGGACAUAAGAUCACAUGAGGAUCACCCAUGUGAAUAACAAGCUUUUUGCUCGUCUUAUGUCCAAUAAUAG [Stov1/14-A2] (Eterna round: R97, puzzle: Sensor, turn-off variant 1)									15.8	13.3	
ACAUGAGGAUCACCCAUGUGACCACGAUGGCUGAUGUAGACCUAGGAUAUGUGUGAAUAUCUAUCACAGAAGGAGGUUGACUGG [Deportation 51 - Jieux - Exclusion NG 3] (Eterna round: R96, puzzle: Exclusion NG 3)									44.4	42.7	34.3
GAUAGACAUGAGGAUCACCCAUGUGAGGAUAUGCGUACGUUGUCCGUAGGCGACGUGCGCAGAAGGCGCGAGGU [Mat - Mod of JL D93] (puzzle: Exclusion 1)							42.5				
UCUUACUGAGGAUAUACUUAGAUUUACAUGAGGAUCACCCAUGUUCCUCUAUGUAUAUAUGUAGAAGGCAGAAGAA [Mat - Exclusion 5 - JL Mod - D46] (Eterna round: R97, puzzle: Exclusion 5)									241	37.1	
CCAAGAAUAGGAUAUACACCAUGUCAGCUUCUAUACAUCGCACAUGAGGAUCACCCAUGUAGAAGGGUUCUCUC [Exclusion-2-#4] (Eterna round: R97, puzzle: Exclusion 2)									369	282	
GAUCCACAUGAGGAUCACCCAUGUGAGGAUAUGUCCAUAUUCGGCAAAUCGGAUAUGGACAGAAGGCACACCGG [JR_Exclusion1_Sub012] (puzzle: Exclusion 1)							104				
GUUUGAUUAGGAUAUACAUGAGGAUCACCCAUGUGUCCCAGUUUAGAAAUAGACAAAAGUAGAAGGGAUUAGAU [Starry 2] (Eterna round: R97, puzzle: Exclusion 3)									37.8	45.8	
